Assay results as given in patent US20210246166A1 (Bayer, published 2021).
Numbered stars: 1 amine (or outer) side, 2 acyl side, 3 side chain; on linkers, the order of the positions; unused ones are H or OH. Bridge positions count the residues as written; N and C are the ends. Square brackets hold non-standard residues; d marks the D form. Primed or numbered codes have the meaning given here. Ends that are not written are not given here. * marks the point of attachment. X13 = (2S)‑2‑amino‑3‑(1-methylcyclopropyl)propanoic acid, CC1(C[C@H](N[*:1])C(=O)[*:2])CC1; Tranexamic″ = tranexamic acid, NC[C@H]1CC[C@@H](C(=O)*)CC1; Oic = O=C(O)[C@@H]1C[C@@H]2CCCC[C@@H]2N1; Cyclopropylacetic acid = O=C(CC1CC1)*; Gly(cPent) = N[C@H](C(=O)O)C1CCCC1; NMeI = CC[C@H](C)[C@H](NC)C(=O)O; aIle = CC[C@@H](C)[C@H](N)C(=O)O; tBuAla = CC(C)(C)C[C@H](N)C(=O)O; aThr = C[C@H](O)[C@H](N)C(=O)O; Chg = N[C@H](C(=O)O)C1CCCCC1; Pen = CC(C)(S)[C@H](N)C(=O)O; NMeC = CN[C@@H](CS)C(=O)O; Sar = CNCC(=O)O

Experiments:
[1] = target: T1, Recombinant human MASP1 enzyme (fragment corresponding to amino acids 297-699, C-terminal His Tag) (human, UniProt P48740 297-699); assay: cell-based or functional assay
T1 sequence: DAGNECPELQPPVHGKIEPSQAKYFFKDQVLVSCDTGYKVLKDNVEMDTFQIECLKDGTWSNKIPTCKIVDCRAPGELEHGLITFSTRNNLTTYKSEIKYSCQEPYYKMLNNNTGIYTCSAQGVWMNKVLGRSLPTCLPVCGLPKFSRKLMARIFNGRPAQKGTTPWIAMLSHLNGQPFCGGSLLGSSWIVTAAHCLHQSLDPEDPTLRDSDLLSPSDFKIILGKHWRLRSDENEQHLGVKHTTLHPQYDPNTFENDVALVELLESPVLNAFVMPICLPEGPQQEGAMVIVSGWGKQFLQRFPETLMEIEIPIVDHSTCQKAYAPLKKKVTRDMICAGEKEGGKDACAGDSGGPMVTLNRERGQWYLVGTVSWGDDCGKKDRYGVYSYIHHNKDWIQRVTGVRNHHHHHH

[2] = target: Recombinant human MASP2 enzyme (fragment corresponding to amino acids 297-686, C-terminal His Tag) (human, UniProt O00187 297-686); assay: cell-based or functional assay
Recombinant human MASP2 enzyme (fragment corresponding to amino acids 297-686, C-terminal His Tag), sequence (O00187 other isoform, or with tags, fused parts or gaps limits assumed): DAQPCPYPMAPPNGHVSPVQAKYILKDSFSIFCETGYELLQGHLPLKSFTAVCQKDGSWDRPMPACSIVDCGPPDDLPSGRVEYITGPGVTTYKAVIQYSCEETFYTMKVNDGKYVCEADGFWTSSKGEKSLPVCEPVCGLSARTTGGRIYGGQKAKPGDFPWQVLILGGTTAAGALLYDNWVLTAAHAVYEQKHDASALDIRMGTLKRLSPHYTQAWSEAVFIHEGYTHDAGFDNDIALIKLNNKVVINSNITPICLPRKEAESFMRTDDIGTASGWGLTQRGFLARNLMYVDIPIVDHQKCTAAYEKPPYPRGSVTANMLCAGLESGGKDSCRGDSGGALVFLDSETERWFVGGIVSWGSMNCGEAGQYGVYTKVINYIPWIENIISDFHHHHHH

[Sar]ICSRSLP[Oic]I[Pen]IP-NH2 (disulfide 3-11; also: tartrate salt) [((N-Me)G)-IC+SRSLP-(Oic)-I-(Pen)+IP-NH2 (Tartrate)]
human MASP1 IC50 [1]: 1.1 nM | human MASP2 IC50 [2]: 35 nM

B1: (Tranexamic)-IC+SRS-((tBu)A)-PPI-(Pen)+IP-NH2 (peptide)
peptide: {Tranexamic″}-ICSRS[tBuAla]PPI[Pen]IP-NH2
modifications: disulfide 2-10
SMILES: CC[C@H](C)[C@@H]1NC(=O)[C@@H]2CCCN2C(=O)[C@@H]2CCCN2C(=O)[C@H](CC(C)(C)C)NC(=O)[C@H](CO)NC(=O)[C@H](CCCNC(=N)N)NC(=O)[C@H](CO)NC(=O)[C@@H](NC(=O)[C@@H](NC(=O)[C@H]2CC[C@@H](CN)CC2)[C@@H](C)CC)CSSC(C)(C)[C@@H](C(=O)N[C@H](C(=O)N2CCC[C@H]2C(N)=O)[C@@H](C)CC)NC1=O
human MASP1 IC50 [1]: 12 nM | human MASP2 IC50 [2]: 17 nM

B2: ((N-Me)G)-IC+SRS-((2S)-2-amino-3-(1-methylcyclopropyl)propanoic acid)-P-(Oic)-I-(Pen)+IP-NH2 (peptide)
peptide: [Sar]ICSRS[X13]P[Oic]I[Pen]IP-NH2
modifications: disulfide 3-11; N-terminus assumed
SMILES: CC[C@H](C)[C@H](NC(=O)CNC)C(=O)N[C@H]1CSSC(C)(C)[C@@H](C(=O)N[C@H](C(=O)N2CCC[C@H]2C(N)=O)[C@@H](C)CC)NC(=O)[C@H]([C@@H](C)CC)NC(=O)[C@@H]2C[C@@H]3CCCC[C@@H]3N2C(=O)[C@@H]2CCCN2C(=O)[C@H](CC2(C)CC2)NC(=O)[C@H](CO)NC(=O)[C@H](CCCNC(=N)N)NC(=O)[C@H](CO)NC1=O
human MASP1 IC50 [1]: 11 nM | human MASP2 IC50 [2]: 57 nM

B3: (Cyclopropylacetic acid)-IC+SRS-((tBu)A)-PPI-((N-Me)C)+I-NH2 (peptide)
peptide: {Cyclopropylacetic acid}-ICSRS[tBuAla]PPI[NMeC]I-NH2
modifications: disulfide 2-10
SMILES: CC[C@H](C)[C@H](NC(=O)[C@@H]1CSSC[C@H](NC(=O)[C@@H](NC(=O)CC2CC2)[C@@H](C)CC)C(=O)N[C@@H](CO)C(=O)N[C@@H](CCCNC(=N)N)C(=O)N[C@@H](CO)C(=O)N[C@@H](CC(C)(C)C)C(=O)N2CCC[C@H]2C(=O)N2CCC[C@H]2C(=O)N[C@@H]([C@@H](C)CC)C(=O)N1C)C(N)=O
human MASP1 IC50 [1]: 13 nM | human MASP2 IC50 [2]: 55 nM

B4: Ac-IC+SRS-((tBu)A)-PPI-((N-Me)C)+I-NH2 (peptide)
peptide: Ac-ICSRS[tBuAla]PPI[NMeC]I-NH2
modifications: disulfide 2-10
SMILES: CC[C@H](C)[C@H](NC(=O)[C@@H]1CSSC[C@H](NC(=O)[C@@H](NC(C)=O)[C@@H](C)CC)C(=O)N[C@@H](CO)C(=O)N[C@@H](CCCNC(=N)N)C(=O)N[C@@H](CO)C(=O)N[C@@H](CC(C)(C)C)C(=O)N2CCC[C@H]2C(=O)N2CCC[C@H]2C(=O)N[C@@H]([C@@H](C)CC)C(=O)N1C)C(N)=O
human MASP1 IC50 [1]: 14 nM | human MASP2 IC50 [2]: 61 nM

AICSRS[3‑(Trimethylsilyl)‑L‑alanine]P[Oic]I[NMeC]IPD-NH2 (disulfide 3-11) [AIC+SRS-(3-(Trimethylsilyl)-L-alanine)-P-(Oic)-I-((N-Me)C)+IPD-NH2]
human MASP1 IC50 [1]: 14 nM | human MASP2 IC50 [2]: 1100 nM

B5: G-((N-Me)I)-C+SRSLPPIC+IPd-OH (peptide)
peptide: G[NMeI]CSRSLPPICIP[dD]-OH
modifications: disulfide 3-11; N-terminus assumed
SMILES: CC[C@H](C)[C@@H]1NC(=O)[C@@H]2CCCN2C(=O)[C@@H]2CCCN2C(=O)[C@H](CC(C)C)NC(=O)[C@H](CO)NC(=O)[C@H](CCCNC(=N)N)NC(=O)[C@H](CO)NC(=O)[C@@H](NC(=O)[C@H]([C@@H](C)CC)N(C)C(=O)CN)CSSC[C@@H](C(=O)N[C@H](C(=O)N2CCC[C@H]2C(=O)N[C@H](CC(=O)O)C(=O)O)[C@@H](C)CC)NC1=O
human MASP1 IC50 [1]: 14 nM | human MASP2 IC50 [2]: 1300 nM

B6: G-((N-Me)I)-C+SRSLPPIC+IPD-OH (peptide)
peptide: G[NMeI]CSRSLPPICIPD-OH
modifications: disulfide 3-11; N-terminus assumed
SMILES: CC[C@H](C)[C@@H]1NC(=O)[C@@H]2CCCN2C(=O)[C@@H]2CCCN2C(=O)[C@H](CC(C)C)NC(=O)[C@H](CO)NC(=O)[C@H](CCCNC(=N)N)NC(=O)[C@H](CO)NC(=O)[C@@H](NC(=O)[C@H]([C@@H](C)CC)N(C)C(=O)CN)CSSC[C@@H](C(=O)N[C@H](C(=O)N2CCC[C@H]2C(=O)N[C@@H](CC(=O)O)C(=O)O)[C@@H](C)CC)NC1=O
human MASP1 IC50 [1]: 14 nM | human MASP2 IC50 [2]: 1100 nM

B7: IC+SRSLP-(Oic)-I-(Pen)+IP-OH (peptide)
peptide: ICSRSLP[Oic]I[Pen]IP-OH
modifications: disulfide 2-10; N-terminus assumed
SMILES: CC[C@H](C)[C@H](N)C(=O)N[C@H]1CSSC(C)(C)[C@@H](C(=O)N[C@H](C(=O)N2CCC[C@H]2C(=O)O)[C@@H](C)CC)NC(=O)[C@H]([C@@H](C)CC)NC(=O)[C@@H]2C[C@@H]3CCCC[C@@H]3N2C(=O)[C@@H]2CCCN2C(=O)[C@H](CC(C)C)NC(=O)[C@H](CO)NC(=O)[C@H](CCCNC(=N)N)NC(=O)[C@H](CO)NC1=O
human MASP1 IC50 [1]: 11 nM | human MASP2 IC50 [2]: 1200 nM

B8: AIC+SRS-((tBu)A)-P-(Oic)-I-((N-Me)C)+IPD-NH2 (peptide)
peptide: AICSRS[tBuAla]P[Oic]I[NMeC]IPD-NH2
modifications: disulfide 3-11; N-terminus assumed
SMILES: CC[C@H](C)[C@H](NC(=O)[C@H](C)N)C(=O)N[C@H]1CSSC[C@@H](C(=O)N[C@H](C(=O)N2CCC[C@H]2C(=O)N[C@@H](CC(=O)O)C(N)=O)[C@@H](C)CC)N(C)C(=O)[C@H]([C@@H](C)CC)NC(=O)[C@@H]2C[C@@H]3CCCC[C@@H]3N2C(=O)[C@@H]2CCCN2C(=O)[C@H](CC(C)(C)C)NC(=O)[C@H](CO)NC(=O)[C@H](CCCNC(=N)N)NC(=O)[C@H](CO)NC1=O
human MASP1 IC50 [1]: 12 nM | human MASP2 IC50 [2]: 370 nM

B9: ((N-Me)G)-((N-Me)G)-((N-Me)G)-((N-Me)G)-((N-Me)G)-IC+SRS-((tBu)A)-PPI-(Pen)+IP-NH2 (peptide)
peptide: [Sar][Sar][Sar][Sar][Sar]ICSRS[tBuAla]PPI[Pen]IP-NH2
modifications: disulfide 7-15; N-terminus assumed
SMILES: CC[C@H](C)[C@H](NC(=O)CN(C)C(=O)CN(C)C(=O)CN(C)C(=O)CN(C)C(=O)CNC)C(=O)N[C@H]1CSSC(C)(C)[C@@H](C(=O)N[C@H](C(=O)N2CCC[C@H]2C(N)=O)[C@@H](C)CC)NC(=O)[C@H]([C@@H](C)CC)NC(=O)[C@@H]2CCCN2C(=O)[C@@H]2CCCN2C(=O)[C@H](CC(C)(C)C)NC(=O)[C@H](CO)NC(=O)[C@H](CCCNC(=N)N)NC(=O)[C@H](CO)NC1=O
human MASP1 IC50 [1]: 11 nM | human MASP2 IC50 [2]: 38 nM

B10: AIC+SRSLP-(Oic)-(Chg)-C+IPD-NH2 (peptide)
peptide: AICSRSLP[Oic][Chg]CIPD-NH2
modifications: disulfide 3-11; N-terminus assumed
SMILES: CC[C@H](C)[C@H](NC(=O)[C@H](C)N)C(=O)N[C@H]1CSSC[C@@H](C(=O)N[C@H](C(=O)N2CCC[C@H]2C(=O)N[C@@H](CC(=O)O)C(N)=O)[C@@H](C)CC)NC(=O)[C@H](C2CCCCC2)NC(=O)[C@@H]2C[C@@H]3CCCC[C@@H]3N2C(=O)[C@@H]2CCCN2C(=O)[C@H](CC(C)C)NC(=O)[C@H](CO)NC(=O)[C@H](CCCNC(=N)N)NC(=O)[C@H](CO)NC1=O
human MASP1 IC50 [1]: 12 nM | human MASP2 IC50 [2]: 290 nM

B11: A-((N-Me)I)-C+SRSLPPIC+IPD-NH2 (peptide)
peptide: A[NMeI]CSRSLPPICIPD-NH2
modifications: disulfide 3-11; N-terminus assumed
SMILES: CC[C@H](C)[C@@H]1NC(=O)[C@@H]2CCCN2C(=O)[C@@H]2CCCN2C(=O)[C@H](CC(C)C)NC(=O)[C@H](CO)NC(=O)[C@H](CCCNC(=N)N)NC(=O)[C@H](CO)NC(=O)[C@@H](NC(=O)[C@H]([C@@H](C)CC)N(C)C(=O)[C@H](C)N)CSSC[C@@H](C(=O)N[C@H](C(=O)N2CCC[C@H]2C(=O)N[C@@H](CC(=O)O)C(N)=O)[C@@H](C)CC)NC1=O
human MASP1 IC50 [1]: 10.1 nM | human MASP2 IC50 [2]: 2700 nM

B12: AIC+SRSLPP-(Cpg)-C+IPD-NH2 (peptide)
peptide: AICSRSLPP[Gly(cPent)]CIPD-NH2
modifications: disulfide 3-11; N-terminus assumed
SMILES: CC[C@H](C)[C@H](NC(=O)[C@H](C)N)C(=O)N[C@H]1CSSC[C@@H](C(=O)N[C@H](C(=O)N2CCC[C@H]2C(=O)N[C@@H](CC(=O)O)C(N)=O)[C@@H](C)CC)NC(=O)[C@H](C2CCCC2)NC(=O)[C@@H]2CCCN2C(=O)[C@@H]2CCCN2C(=O)[C@H](CC(C)C)NC(=O)[C@H](CO)NC(=O)[C@H](CCCNC(=N)N)NC(=O)[C@H](CO)NC1=O
human MASP1 IC50 [1]: 11 nM | human MASP2 IC50 [2]: 170 nM

B13: AIC+SR-(allo-T)-LPPIC+IPD-NH2 (peptide)
peptide: AICSR[aThr]LPPICIPD-NH2
modifications: disulfide 3-11; N-terminus assumed
SMILES: CC[C@H](C)[C@H](NC(=O)[C@H](C)N)C(=O)N[C@H]1CSSC[C@@H](C(=O)N[C@H](C(=O)N2CCC[C@H]2C(=O)N[C@@H](CC(=O)O)C(N)=O)[C@@H](C)CC)NC(=O)[C@H]([C@@H](C)CC)NC(=O)[C@@H]2CCCN2C(=O)[C@@H]2CCCN2C(=O)[C@H](CC(C)C)NC(=O)[C@H]([C@H](C)O)NC(=O)[C@H](CCCNC(=N)N)NC(=O)[C@H](CO)NC1=O
human MASP1 IC50 [1]: 14 nM | human MASP2 IC50 [2]: 330 nM

B14: ((N-Me)G)-IC+SRSLPPIC+(allo-I)-PD-NH2 (peptide)
peptide: [Sar]ICSRSLPPIC[aIle]PD-NH2
modifications: disulfide 3-11; N-terminus assumed
SMILES: CC[C@@H](C)[C@H](NC(=O)[C@@H]1CSSC[C@H](NC(=O)[C@@H](NC(=O)CNC)[C@@H](C)CC)C(=O)N[C@@H](CO)C(=O)N[C@@H](CCCNC(=N)N)C(=O)N[C@@H](CO)C(=O)N[C@@H](CC(C)C)C(=O)N2CCC[C@H]2C(=O)N2CCC[C@H]2C(=O)N[C@@H]([C@@H](C)CC)C(=O)N1)C(=O)N1CCC[C@H]1C(=O)N[C@@H](CC(=O)O)C(N)=O
human MASP1 IC50 [1]: 14 nM | human MASP2 IC50 [2]: 170 nM
